Source: patent US9345743B2, “Agent for promoting proliferation of bifidobacteria” (MORINAGA MILK INDUSTRY CO., LTD., priority 2011, dated 2016)

Assays:
Assay in all cases: Bifidobacterium proliferation promoting activity, turbidity at 630 nm after 16 h anaerobic culture in MRS medium
Type in all cases: cell-based
Settings in all cases: 37° C.
[1] = test system: Bifidobacterium bifidum ATCC 29521
Description: (§1) A 9.375 μM aqueous solution of each peptide was adjusted to pH 6.5 with an HCl aqueous solution, and subjected to filtration sterilization using a 0.22-μm membrane. Each peptide solution was diluted with dilution water to obtain 9.375 μM, 3.125 μM, 0.9375 μM, and 0.3125 μM sample solutions. As the dilution water, purified water adjusted to pH 6.5 with an HCl solution and sterilized at 115° C. for 15 minutes was used.
(§2) Bifidobacterium proliferation promoting activities of the aforementioned peptides were evaluated as follows.
(§3) The bifidobacteria used for the experiment were as follows. These strains can be obtained from ATCC (American Type Culture Collection, http://www.atcc.org/). • Bifidobacterium infantis ATCC 15697^T • Bifidobacterium breve ATCC 15700^T • Bifidobacterium bifidum ATCC 29521^T
(§4) A cell suspension of each strain (100 μL) cryopreserved in a 10% skim milk medium was added to the MRS liquid medium (3 mL), and culture was performed at 37° C. for 16 hours under an anaerobic condition. The culture medium (100 μL) was added to the MRS liquid medium (3 mL). The MRS liquid medium was prepared by dissolving Difco Lactobacilli MRS Broth (5.5 g, BD, “Difco” is a registered trademark of Difco Laboratories, Incorporated), and L-cysteine monohydrochloride monohydrate (50 mg, Wako Pure Chemical Industries, Co., Ltd.) in pure water so as to obtain a final volume of 100 mL, adjusting the solution to pH 6.5 with an HCl aqueous solution, and sterilizing the solution at 115° C. for 15 minutes. Further, a concentrated medium containing the components at twofold concentrations was prepared in the same manner as described above, except that Difco Lactobacilli MRS Broth and L-cysteine monohydrochloride monohydrate were used in amounts of 11 g and 100 mg, respectively.
(§5) The aforementioned culture medium was diluted with the MRS liquid medium so as to obtain a turbidity of 0.8 measured at a wavelength of 630 nm. This diluted culture medium was further diluted 100 times with the MRS liquid medium. The obtained diluted culture medium is referred to as 1% diluted culture medium.
(§6) Anaerobic culture was performed at 37° C. for 16 hours in a mixture of 100 μL of the twofold concentrated culture medium, 80 μL of a sample solution or the dilution water, and 20 μL of the 1% diluted culture medium (inoculation volume was 0.1%) or the MRS liquid medium (inoculation volume was 0%) on a 96-well plate (FALCON 353072). The final concentration of the peptide in the mixture was 3.75 μM, 1.25 μM, 0.375 μM, 0.125 μM, or 0 μM.
(§7) After the culture, turbidity of each culture medium was measured at a wavelength of 630 nm, and the proliferation promoting ratio (%) was calculated in accordance with the following equation. Proliferation promoting ratio (%)=(ODS1−ODS0)/(ODC1−ODC0)×100−100
(§8) ODS1: Turbidity observed after culture performed at a sample concentration of 3.75 to 0.125 μM and inoculation volume of 0.1% for 16 hours
(§9) ODS0: Turbidity observed after culture performed at a sample concentration of 3.75 to 0.125 μM and inoculation volume of 0% for 16 hours
(§10) ODC0: Turbidity observed after culture performed at a sample concentration of 0 μM and inoculation volume of 0% for 16 hours
(§11) Bifidobacterium proliferation promoting activities of the aforementioned peptides were evaluated in the same manner as that of Example 1.

[2] = test system: Bifidobacterium breve ATCC 15700
Description: as §1, §2, §3, §4, §5, §6, §7, §8, §9, §10, §11

[3] = test system: Bifidobacterium infantis ATCC 15697
Description: as §1, §2, §3, §4, §5, §6, §7, §8, §9, §10, §11

B1: bovine lactoferrin (protein, UniProt P24627 20-708, looked up)
Lactotransferrin: APRKNVRWCTISQPEWFKCRRWQWRMKKLGAPSITCVRRAFALECIRAIAEKKADAVTLDGGMVFEAGRDPYKLRPVAAEIYGTKESPQTHYYAVAVVKKGSNFQLDQLQGRKSCHTGLGRSAGWIIPMGILRPYLSWTESLEPLQGAVAKFFSASCVPCIDRQAYPNLCQLCKGEGENQCACSSREPYFGYSGAFKCLQDGAGDVAFVKETTVFENLPEKADRDQYELLCLNNSRAPVDAFKECHLAQVPSHAVVARSVDGKEDLIWKLLSKAQEKFGKNKSRSFQLFGSPPGQRDLLFKDSALGFLRIPSKVDSALYLGSRYLTTLKNLRETAEEVKARYTRVVWCAVGPEEQKKCQQWSQQSGQNVTCATASTTDDCIVLVLKGEADALNLDGGYIYTAGKCGLVPVLAENRKSSKHSSLDCVLRPTEGYLAVAVVKKANEGLTWNSLKDKKSCHTAVDRTAGWNIPMGLIVNQTGSCAFDEFFSQSCAPGADPKSRLCALCAGDDQGLDKCVPNSKEKYYGYTGAFRCLAEDVGDVAFVKNDTVWENTNGESTADWAKNLNREDFRLLCLDGTRKPVTEAQSCHLAVAPNHAVVSRSDRAAHVKQVLLHQQALFGKNGKNCPDKFCLFKSETKNLLFNDNTECLAKLGGRPTYEEYLGTEYVTAIANLKKCSTSPLLEACAFLTR
In the case of B1, the “Proliferation promoting ratio (%)” value ([1]; B. bifidum ATCC 29521, 0.125 μM) is reported as 8%, the “Proliferation promoting ratio (%)” value ([1]; B. bifidum ATCC 29521, 0.375 μM) is reported as 8% and the “Proliferation promoting ratio (%)” value ([1]; B. bifidum ATCC 29521, 1.25 μM) is reported as 10%. The “Proliferation promoting ratio (%)” value ([1]; B. bifidum ATCC 29521, 3.75 μM) was 12%, the “Proliferation promoting ratio (%)” value ([2]; B. breve ATCC 15700, 0.125 μM) was 2% and the “Proliferation promoting ratio (%)” value ([2]; B. breve ATCC 15700, 0.375 μM) was 4%. The “Proliferation promoting ratio (%)” value ([2]; B. breve ATCC 15700, 1.25 μM) was 8%, the “Proliferation promoting ratio (%)” value ([2]; B. breve ATCC 15700, 3.75 μM) was 21% and the “Proliferation promoting ratio (%)” value ([3]; B. infantis ATCC 15697, 0.125 μM) was 1%. For the same molecule, the “Proliferation promoting ratio (%)” value ([3]; B. infantis ATCC 15697, 0.375 μM) was 1%, the “Proliferation promoting ratio (%)” value ([3]; B. infantis ATCC 15697, 1.25 μM) was 13% and the “Proliferation promoting ratio (%)” value ([3]; B. infantis ATCC 15697, 3.75 μM) was 23%.
